The values that follow come from patent US20240052042A1 (Novartis, published 2024).

Assay [1] has as its target T1, hNPR1-ANP complex (human, UniProt P01160 124-151, limits assumed).
T1 construct: hNPR1 antigen in the presence of ANP; also called hNPR1 + 100 nM ANP
T1 sequence: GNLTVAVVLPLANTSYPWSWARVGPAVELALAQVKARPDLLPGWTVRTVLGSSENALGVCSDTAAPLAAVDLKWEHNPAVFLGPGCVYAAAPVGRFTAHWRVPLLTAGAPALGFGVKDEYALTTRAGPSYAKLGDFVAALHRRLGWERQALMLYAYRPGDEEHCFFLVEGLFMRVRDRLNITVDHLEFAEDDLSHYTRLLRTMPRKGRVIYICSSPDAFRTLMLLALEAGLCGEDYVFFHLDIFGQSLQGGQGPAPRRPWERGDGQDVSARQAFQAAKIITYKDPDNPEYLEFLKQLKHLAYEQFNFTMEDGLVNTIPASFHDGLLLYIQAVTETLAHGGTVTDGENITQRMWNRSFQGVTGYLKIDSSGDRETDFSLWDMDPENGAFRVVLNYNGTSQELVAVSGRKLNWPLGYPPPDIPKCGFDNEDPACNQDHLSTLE
T1 sequence (peptide): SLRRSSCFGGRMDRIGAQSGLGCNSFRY
Put plainly: FabCys, parental value by Biacore, as in Table 5. For orientation: SPR reads the build-up and loss of mass on a sensor chip optically.

Assay [2] concerns the target T2, rNPR1-ANP complex (rat, UniProt P01160 124-151 (human entry), limits assumed).
T2 construct: rNPR1 antigen in the presence of ANP; also called rNPR1 + 100 nM ANP
T2 sequence: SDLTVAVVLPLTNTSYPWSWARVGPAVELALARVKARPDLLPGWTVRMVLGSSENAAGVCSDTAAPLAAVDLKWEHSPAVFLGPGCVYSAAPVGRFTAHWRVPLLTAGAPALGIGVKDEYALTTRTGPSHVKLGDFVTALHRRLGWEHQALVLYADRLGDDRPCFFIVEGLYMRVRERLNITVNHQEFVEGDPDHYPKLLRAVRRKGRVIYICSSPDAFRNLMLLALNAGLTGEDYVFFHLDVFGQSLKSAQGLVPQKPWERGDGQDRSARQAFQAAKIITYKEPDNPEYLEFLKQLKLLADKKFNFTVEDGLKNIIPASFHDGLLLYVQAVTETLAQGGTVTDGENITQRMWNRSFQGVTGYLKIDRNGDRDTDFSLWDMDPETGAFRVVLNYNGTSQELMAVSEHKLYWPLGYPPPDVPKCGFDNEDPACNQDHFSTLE
T2 sequence (peptide): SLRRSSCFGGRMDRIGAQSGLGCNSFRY
Put plainly: FabCys, parental value by Biacore, as in Table 5.

Assay [3] concerns the target T3, human NPR1 on CHO-K1 cells (human, UniProt P16066 33-1061).
T3 sequence: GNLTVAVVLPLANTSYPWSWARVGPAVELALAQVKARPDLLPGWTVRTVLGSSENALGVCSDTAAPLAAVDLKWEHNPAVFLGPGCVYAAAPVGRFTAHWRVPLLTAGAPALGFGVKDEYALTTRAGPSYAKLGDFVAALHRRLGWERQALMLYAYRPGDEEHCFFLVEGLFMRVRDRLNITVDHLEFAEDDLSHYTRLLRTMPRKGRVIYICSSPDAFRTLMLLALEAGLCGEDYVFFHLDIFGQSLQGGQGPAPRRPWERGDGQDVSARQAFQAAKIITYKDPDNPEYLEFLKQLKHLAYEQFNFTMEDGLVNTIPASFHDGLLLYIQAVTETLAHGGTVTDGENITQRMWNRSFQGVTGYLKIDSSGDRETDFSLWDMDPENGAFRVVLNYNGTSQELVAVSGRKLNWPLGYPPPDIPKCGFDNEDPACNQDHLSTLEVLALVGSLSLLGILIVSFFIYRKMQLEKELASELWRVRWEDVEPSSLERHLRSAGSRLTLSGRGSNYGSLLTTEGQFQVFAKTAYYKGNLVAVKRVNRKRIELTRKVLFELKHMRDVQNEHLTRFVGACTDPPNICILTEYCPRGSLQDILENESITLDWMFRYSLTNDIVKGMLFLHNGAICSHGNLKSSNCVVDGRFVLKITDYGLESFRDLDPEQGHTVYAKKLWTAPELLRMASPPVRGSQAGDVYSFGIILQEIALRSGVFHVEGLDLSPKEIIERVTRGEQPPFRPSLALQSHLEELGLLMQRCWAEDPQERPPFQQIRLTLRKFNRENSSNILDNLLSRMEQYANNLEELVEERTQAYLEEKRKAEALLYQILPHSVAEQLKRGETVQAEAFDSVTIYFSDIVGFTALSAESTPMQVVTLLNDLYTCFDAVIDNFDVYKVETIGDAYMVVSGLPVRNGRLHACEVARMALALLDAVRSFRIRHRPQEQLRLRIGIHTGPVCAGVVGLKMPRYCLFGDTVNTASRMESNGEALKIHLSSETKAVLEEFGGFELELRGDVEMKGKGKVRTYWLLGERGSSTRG
Put plainly: cell-based or functional assay.

For assay [4], the target named is T1, hNPR1-ANP complex. Put plainly: FabCys affinity (Biacore per paragraph 323).
Assay [5] has as its target T2, rNPR1-ANP complex. Put plainly: FabCys affinity (Biacore per paragraph 323).
The target in assay [6] is T4, rat NPR1 (rNPR1) (rat, UniProt P18910 29-469, limits assumed).
T4 construct: Soluble antigen
T4 sequence: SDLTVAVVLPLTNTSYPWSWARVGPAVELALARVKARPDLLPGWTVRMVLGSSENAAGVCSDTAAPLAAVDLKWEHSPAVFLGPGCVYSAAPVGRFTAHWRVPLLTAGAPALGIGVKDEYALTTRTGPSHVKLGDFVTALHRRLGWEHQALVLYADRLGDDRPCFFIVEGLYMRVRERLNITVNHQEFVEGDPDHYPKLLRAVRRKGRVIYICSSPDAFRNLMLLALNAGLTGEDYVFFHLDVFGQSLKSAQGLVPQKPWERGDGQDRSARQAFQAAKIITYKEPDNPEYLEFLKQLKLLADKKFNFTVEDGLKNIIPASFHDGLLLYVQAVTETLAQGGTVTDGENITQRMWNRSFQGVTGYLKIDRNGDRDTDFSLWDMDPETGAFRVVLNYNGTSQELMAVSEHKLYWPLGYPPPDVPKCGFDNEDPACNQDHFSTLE
As to the kind of experiment: Octet, FabCys. On the technique in general: Biolayer interferometry detects binding as a change in optical thickness at a sensor tip.

For assay [7], the target named is T1, hNPR1-ANP complex. Put plainly: Octet, FabCys.
Assay [8] addresses T2, rNPR1-ANP complex. Put plainly: Octet, FabCys.
Assay [9] concerns the target T4, rat NPR1 (rNPR1). Put plainly: SET, FabCys.
For assay [10], the target named is T1, hNPR1-ANP complex. As to the kind of experiment: SET, FabCys.
The target of assay [11] is T5, human Natriuretic Peptide Receptor 1 (hNPR1) (human, UniProt P16066 33-473, limits assumed).
T5 construct: pannings used NPR1-hFc; also called NPR1-hFc
T5 sequence: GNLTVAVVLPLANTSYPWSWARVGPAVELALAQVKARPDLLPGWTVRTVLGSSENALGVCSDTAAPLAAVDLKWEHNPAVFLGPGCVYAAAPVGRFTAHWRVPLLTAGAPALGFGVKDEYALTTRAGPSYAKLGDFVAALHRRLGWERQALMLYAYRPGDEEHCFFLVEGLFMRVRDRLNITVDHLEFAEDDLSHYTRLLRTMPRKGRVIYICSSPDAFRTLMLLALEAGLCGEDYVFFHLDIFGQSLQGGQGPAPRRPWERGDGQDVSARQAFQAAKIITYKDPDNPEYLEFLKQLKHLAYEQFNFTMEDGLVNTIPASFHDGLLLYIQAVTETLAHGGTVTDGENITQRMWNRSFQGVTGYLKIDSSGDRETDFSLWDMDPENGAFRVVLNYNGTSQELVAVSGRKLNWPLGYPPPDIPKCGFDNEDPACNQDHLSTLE
Put plainly: SET, FabCys.

In assay [12] the target is T2, rNPR1-ANP complex. As to the kind of experiment: SET, FabCys.
Assay [13] deals with T1, hNPR1-ANP complex. As to the kind of experiment: FabCys, parental value by Octet (table comment), as in Table 14.
Assay [14] has as its target T5, human Natriuretic Peptide Receptor 1 …. Described as above.
In assay [15] the target is T2, rNPR1-ANP complex. Described as above.
The target in assay [16] is T1, hNPR1-ANP complex. Put plainly: FabCys affinity (Octet per Table 18 comment).
In assay [17] the target is T5, human Natriuretic Peptide Receptor 1 …. As to the kind of experiment: FabCys affinity (Octet per Table 18 comment).
The target of assay [18] is T2, rNPR1-ANP complex. Put plainly: FabCys affinity (Octet per Table 18 comment).
Assay [19] addresses T3, human NPR1 on CHO-K1 cells. As to the kind of experiment: cell-based or functional assay. The source holds these as a separate data set.
The target of assay [20] is T4, rat NPR1 (rNPR1). Put plainly: FabCys affinity determination.
Assay [21] has as its target T1, hNPR1-ANP complex. As to the kind of experiment: FabCys affinity determination.
Assay [22] has as its target T5, human Natriuretic Peptide Receptor 1 …. Put plainly: FabCys affinity determination.
The target of assay [23] is T2, rNPR1-ANP complex. Put plainly: FabCys affinity determination.

B1: WW01 (FabCys format) (Fab, V domains shown)
VH: QVQLLESGGGLVQPGGSLRLSCAASGFTFNTHYIHWVRQAPGKGLEWVSSISGSGSNTYYADSVKGRFTISRDNSKNTLYLQMNSLRAEDTAVYYCARERGYVYYHMFDPWGQGTLVTVSS
VL: DIVLTQSPATLSLSPGERATLSCRASQSITRNYLAWYQQKPGQAPRLLIYGASSRATGIPARFSGSGSGTDFTLTISSLEPEDFAVYYCQQHSMYPRTFGQGTKVEIK
notes: Monovalent disulfide-bridged FabCys
By Kd is commonly meant the constant that tells how readily two partners part at equilibrium. B1: the Kd in the assay with hNPR1-ANP complex [1] was 1.5 nM; in the assay with rNPR1-ANP complex [2], 2 nM; with hNPR1-ANP complex [4], 1.5 nM; in the assay with rNPR1-ANP complex [5], 2 nM. The “cGMP conc [nM] at 2 µM FabCys, +0.075 nM ANP” value in assay [3] was determined as 121 nM. Moreover, the “cGMP conc [nM] at 2 µM FabCys, without ANP” value in [3] stood at 30 nM.

B2: ZZ13 (FabCys format) (Fab, V domains shown)
VH: EVQLVESGGGLVQPGGSLRLSCAASGFTFSRYYINWVRQAPGKGLEWVASIHQHGLETRYVESVKGRFTISRDNAKNSLYLQMNSLRAEDTAVYYCARSLRRRSTEHAGFDVWGQGTLVTVSS
VL: DIQMTQSPSSLSASVGDRVTITCRASQGISNYLAWYQQKPGKVPKLLIYAASTLQSGVPSRFSGSGSGTDFTLTISSLQPEDVATYYCQQADKFPYTFGQGTKVEIK
notes: Monovalent FabCys
Take B2: the dissociation constant (Kd) in the assay with rat NPR1 (rNPR1) [6] is 66 nM; in the assay with hNPR1-ANP complex [7] it was 0.14 nM; in the assay with rNPR1-ANP complex [8] it was 0.1 nM; with rat NPR1 (rNPR1) [9] it was 2.3 nM; in the assay with hNPR1-ANP complex [10] it was 1.3 nM; in assay [11] it was 9.9 nM. For the same molecule, binding with rNPR1-ANP complex [12] was characterised by a dissociation constant (Kd) of 1.4 nM.

B3: YY04 (FabCys format) (Fab, V domains shown)
VH: EVQLVESGGGLVKPGGSLRLSCAASGFTFSNYWISWVRQAPGKGLEWVGRIKSKTYGGTTDYAEPVKGRFTISRDDSKNTLYLQMNSLKTEDTAVYYCAREKYSIRARGHGDYGFDVWGQGTLVTVSS
VL: DIQMTQSPSSLSASVGDRVTITCRASQGISNYLAWYQQKPGKVPKLLIYAASTLQSGVPSRFSGSGSGTDFTLTISSLQPEDVATYYCQQGYHAPFTFGQGTKVEIK
notes: Monovalent FabCys
B3: the equilibrium dissociation constant (Kd) with hNPR1-ANP complex [13] worked out at 1.1 nM; in assay [14], 4.9 nM; with rNPR1-ANP complex [15], 1 nM; in the assay with hNPR1-ANP complex [16], 1.1 nM; in assay [17], 4.9 nM; with rNPR1-ANP complex [18], 1 nM. Further, the “cGMP conc [nM] at 1 µM FabCys, +0.075 nM ANP” value in [19] came out at 67 nM. In addition, in assay [19], the “cGMP conc [nM] at 1 µM FabCys, without ANP” value was found to be 18 nM.

B4: YY02 (FabCys format) (Fab, V domains shown)
VH: EVQLVESGGGLVKPGGSLRLSCAASGFTFSSYSMNWVRQAPGKGLEWVSSISSSSSYIYYADSVKGRFTISRDNAKNSLYLQMNSLRAEDTAVYYCARSGYRGVYGFDYWGQGTLVTVSS
VL: DIQMTQSPSSVSASVGDRVTITCRASQGISSWLAWYQQKPGKAPKLLIYAASSLQSGVPSRFSGSGSGTDFTLTISSLQPEDFATYYCQQYYHSPLTFGQGTKVEIK
notes: Monovalent FabCys
On to B4, for which the equilibrium dissociation constant (Kd) with rat NPR1 (rNPR1) [20] worked out at 280 nM; in the assay with hNPR1-ANP complex [21], 1.1 nM; in assay [22], 45 nM; in the assay with rNPR1-ANP complex [23] it was 4.4 nM.
